Source: patent publication US20250277039A1 (PURDUE RESEARCH FOUNDATION, published 2025)
Each block holds one binder with its values, some of them ahead of it.

Legend:
[1] = target: T1, His-tagged canine PD-L1 protein (6X His tagged extracellular domain of cPD-L1) (canine, UniProt E2RKZ5 19-236); test: cell-free blockade assay: canine PD-L1-His on Ni-NTA plate; blocked ligand PD-1-Fc (cPD-1-hFc), HRP anti-human IgG Fc secondary, OD450
T1 construct: also called cPD-L1-His; canine PD-L1-His
T1 sequence: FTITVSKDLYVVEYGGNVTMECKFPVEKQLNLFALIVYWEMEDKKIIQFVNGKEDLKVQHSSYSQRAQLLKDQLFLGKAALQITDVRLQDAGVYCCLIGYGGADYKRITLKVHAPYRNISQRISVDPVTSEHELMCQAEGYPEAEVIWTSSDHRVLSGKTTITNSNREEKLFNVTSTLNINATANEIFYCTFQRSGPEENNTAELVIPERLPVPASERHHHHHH
Experimental: For the […] assays. Pierce Ni-NTA coated 96-well plates (ThermoFisher Scientific. Waltham. MA) were coated with canine PD-L1-His proteins and PD-1-Fc proteins (human Fc-protein conjugated) (SinoBiological US. Wayne. PA), and anti-human IgG Fc specific horseradish peroxidase (HRP)-conjugated secondary antibodies (SouthernBiotech. Birmingham. AL) were added, followed by the addition of anti-canine PD-L1, 12C10E4 or cPD-L1 A12C10E4 antibodies. The bound PD-1-Fc protein was quantified by measuring OD450 value with a Synergy LX multi-mode reader.

[2] = target: T1, His-tagged canine PD-L1 protein (6X His …); test: Octet BLI (RED384): His-tagged cPD-L1 loaded on an NTA biosensor at 200 nM, antibody at 50, 100, 200 nmol/L
Experimental: The binding affinity (KD) of the chimeric cPD-L1/cPD-L1 antibody (12C10E4) for canine PD-L1 was determined by Octet Biolayer interferometry (BLI) using the Octet RED384 system (Sartorius. Bohemia. NY). Briefly. His-tagged cPD-L1 protein was loaded on the Octet NTA biosensor at a concentration of 200 nM. The association step was performed by submerging the sensors in three concentrations of the chimeric cPD-L1/cPD-L1 antibody (12C10E4) (50, 100, 200 nmol/L) in the kinetic buffer. Dissociation was performed and monitored in fresh kinetic buffer. Data were analyzed with Octet Analysis HT software (Sartorius. Bohemia. NY), […].

[3] = target: T2, cPD-L1 on MB49^cPD-L1 cells; test: flow cytometry of MB49^cPD-L1 cells
T2 construct: also called canine PD-L1 (Flag-cPD-L1) on mouse PD-L1 knockout MB49 cells
T2 chain: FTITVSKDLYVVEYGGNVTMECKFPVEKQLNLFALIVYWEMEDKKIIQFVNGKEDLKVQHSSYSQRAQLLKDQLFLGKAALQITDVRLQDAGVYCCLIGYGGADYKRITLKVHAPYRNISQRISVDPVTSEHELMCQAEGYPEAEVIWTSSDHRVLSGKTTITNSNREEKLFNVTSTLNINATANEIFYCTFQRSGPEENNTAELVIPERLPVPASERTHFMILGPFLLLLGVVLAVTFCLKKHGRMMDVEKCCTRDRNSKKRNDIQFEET
Experimental: (§1) For flow cytometry analysis, MB49 or BT549 cells were washed twice with ice-cold cell staining buffer (Biolegend, San Diego, CA) and stained with cIgG control, or cPD-L1 12C10E4 cIgG or cPD-L1 A12C10E4 cIgG for 1 hour at 4° C. After three washes with staining buffer, cell samples were stained with Alexa Fluor 488-conjugated anti-canine IgG specific secondary antibody for 30 minutes at 4° C. Cell samples were loaded on BD LSRFortessa (BD, Franklin Lakes, NJ) for analysis. Data analysis was performed on FlowJo v9 software (BD). Every hour, green fluorescent signal was measured and quantified by IncuCyte S3 (Sartorius. Goettingen, Germany). The Image analysis was performed according to the manufacturer's protocol.

[4] = target: T3, His-tagged mouse PD-L1 protein (mouse, UniProt Q9EP73 19-238, limits assumed); test: plate assay: His-tagged PD-L1 on Ni-NTA 96-well plate, antibody, HRP anti-canine IgG secondary, OD450
T3 construct: also called mPD-L1-His; mPD-L1; not shown: His tag
T3 sequence (Q9EP73 19-238 limits assumed): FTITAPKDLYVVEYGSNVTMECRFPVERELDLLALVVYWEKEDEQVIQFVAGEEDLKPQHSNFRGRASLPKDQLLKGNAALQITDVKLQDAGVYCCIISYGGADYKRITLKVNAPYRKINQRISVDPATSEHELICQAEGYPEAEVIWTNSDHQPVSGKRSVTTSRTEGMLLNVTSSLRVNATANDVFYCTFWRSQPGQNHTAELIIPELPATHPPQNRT
Experimental: 12C and 3C. with human PD-L1 (hPD-L1), mPD-L1, and cPD-L1 proteins. His-tagged human PD-L1, mPD-L1, or cPD-L1 protein was immobilized on the Ni-NTA 96-well plate, and anti-cPD-L1 Abs. 12C or 3C. with HRP-conjugated anti-canine IgG-specific secondary was added. OD450 was measured to quantify the amount of bound PD-L1 antibodies (Ab=antibody).

[5] = target: T4, mPD-L1 on MB49 cells (Mus musculus, UniProt Q9EP73); test: flow cytometry of MB49 parental cells, which stain for mPD-L1 in the left panel
T4 construct: endogenous, membrane-located, on MB49 parental mouse bladder cancer cells; also called endogenous mouse PD-L1 on MB49 parental cells
T4 sequence (Q9EP73 19-290 limits assumed): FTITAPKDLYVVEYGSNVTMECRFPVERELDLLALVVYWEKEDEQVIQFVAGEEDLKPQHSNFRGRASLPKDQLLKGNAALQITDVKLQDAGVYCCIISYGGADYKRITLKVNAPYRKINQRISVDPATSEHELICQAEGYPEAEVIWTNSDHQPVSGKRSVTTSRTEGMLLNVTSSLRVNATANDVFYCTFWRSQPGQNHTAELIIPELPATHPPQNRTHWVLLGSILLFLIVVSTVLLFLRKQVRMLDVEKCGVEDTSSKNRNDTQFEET
Experimental: as §1

[6] = target: T1, His-tagged canine PD-L1 protein (6X His …); test: cell-free ELISA-based binding assay on His-tagged extracellular domain of cPD-L1, bound antibody as OD450
[7] = target: T5, canine PD-L1 (Flag-cPD-L1) expressed on BT549 cells (canine, UniProt E2RKZ5 19-289); test: blockade of cPD-1-hFc binding to cPD-L1, bound cPD-1 quantified by green fluorescence on IncuCyte S3 (FIG. 5E)
T5 construct: Flag-tagged (pGIPZ-shPD-L1/Flag-cPD-L1); Endogenous human PD-L1 was knocked down in the BT549 cells; also called membrane-localized cPD-L1 protein; BT549^cPD-L1 cells
T5 sequence: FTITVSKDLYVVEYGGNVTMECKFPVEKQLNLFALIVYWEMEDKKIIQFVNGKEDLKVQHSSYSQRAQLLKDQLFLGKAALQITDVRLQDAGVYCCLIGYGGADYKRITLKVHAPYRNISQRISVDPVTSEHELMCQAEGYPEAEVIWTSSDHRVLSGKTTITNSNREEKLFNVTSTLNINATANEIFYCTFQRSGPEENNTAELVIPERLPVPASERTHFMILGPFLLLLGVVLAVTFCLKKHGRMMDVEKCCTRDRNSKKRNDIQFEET
Experimental: (§2) To measure PD-1 protein on the cells. […] cells were seeded per well in 96-well plates. The plates were then incubated with cIgG control (Rockland Immunochemicals. Pottstown, PA). 12C10E4 antibody or cPD-L1 A12C10E4 antibody, cPD-1-hFc protein (human Fc protein conjugated: Sino Biological US. Wayne. PA), and/or anti-human Alexa Fluor 488 dye conjugate (ThermoFisher Scientific. Waltham. MA). Every 3 hours green fluorescent signal was measured and quantified by IncuCyte S3 (Sartorius. Goettingen. Germany) (FIG. 5B). The image analysis was performed according to the manufacturer's protocol.

[8] = target: T5, canine PD-L1 (Flag-cPD-L1) expressed on …; test: cPD-1/cPD-L1 blockade assay on BT549^cPD-L1 cells; blocked ligand cPD-1-hFc; green fluorescence by IncuCyte S3
Experimental: as §2

[9] = target: T3, His-tagged mouse PD-L1 protein; test: plate assay: His-tagged PD-L1 on Ni-NTA 96-well plate, PD-1-hFc, HRP anti-human IgG Fc secondary, OD450 given as fold ratio
Experimental: (§3) Histidine (His)-tagged canine or mPD-L1 protein was immobilized on the nickel-nitriloacetic acid (Ni-NTA) 96-well plate and horseradish peroxidase (HRP)-conjugated anti-human IgG Fc-specific secondary with mPD-1-hFc or cPD-1-hFc protein was added. OD450 was measured to quantify the amount of bound PD-1 protein.

[10] = target: T3, His-tagged mouse PD-L1 protein; test: blocking plate assay: mPD-L1-His on Ni-NTA plate, cPD-1-hFc or mPD-1-hFc, HRP anti-human IgG Fc secondary; 12C concentration not given
Experimental: as §3

binding result [10]: no binding
B4: murine monoclonal antibody cPD-L1 12C10E4 from the hybridoma (antibody, mouse IgG1, V domains shown)
VH: QVQLKQSGPGLVQPSQSLSITCTISGFSLTSFGVHWVRQSPGKGLEWLGVIWSGGSTDYNAAFTSRLSINKDNSKSQVFFKMNSLQADDTAIYYCARGGGPDWYFDVWGTGTTVTVSS
VL: DIVLTQSPASLAVSLGQRATISCRASESVEYYGTSLMQWYQQKPGQPPKLLIFAASNVKSGVPARFSGSGSGTDFSLNIHPVEEDDIAMYFCQQSGKVPHTFGGGTKLEIK
notes: Hybridoma antibody from A/J mice immunized with the cPD-L1 extracellular domain-human Fc; also called mAb 12C; murine 12C antibody

binding result [4]: no binding
B5: cPD-L1 3C chimeric antibody clone (3C8D3 variable domains, canine constant domains) (antibody, V domains shown)
VH: EVQLQQSGPELVKPGASVKMSCKASGYTFTDYVLHWVRQTNGKSLEWIGEINPSNGDTYYNQKFKGKATLTVDTSSSTAYMQLTTLTSEDSAVYYCARSDYSNYVGFAYWGQGTLVTVSA
VL: DIVMTQSHKFMSTSVGDRVSITCKVSQDVGTAVAWYQQKPGQCPKRLIYWTSTRHTGVPDRFTGSGSGTDFTLTISNVQSEDLVDYFCQQYSSYPLTFGGGTKLELKR
notes: also called cPD-L1 3C8D3

Continued, binder first:

B1: cPD-L1 12C10E4 chimeric antibody (mouse variable domains, canine IgG2 / canine kappa constant domains) (antibody)
heavy: QVQLKQSGPGLVQPSQSLSITCTISGFSLTSFGVHWVRQSPGKGLEWLGVIWSGGSTDYNAAFTSRLSINKDNSKSQVFFKMNSLQADDTAIYYCARGGGPDWYFDVWGTGTTVTVSSASTTAPSVFPLAPSCGSTSGSTVALACLVSGYFPEPVTVSWNSGSLTSGVHTFPSVLQSSGLYSLSSMVTVPSSRWPSETFTCNVAHPASKTKVDKPVPKRENGRVPRPPDCPKCPAPEMLGGPSVFIFPPKPKDTLLIARTPEVTCVVVDLDPEDPEVQISWFVDGKQMQTAKTQPREEQFNGTYRVVSVLPIGHQDWLKGKQFTCKVNNKALPSPIERTISKARGQAHQPSVYVLPPSREELSKNTVSLTCLIKDFFPPDIDVEWQSNGQQEPESKYRTTPPQLDEDGSYFLYSKLSVDKSRWQRGDTFICAVMHEALHNHYTQKSLSHSPGK
light: DIVLTQSPASLAVSLGQRATISCRASESVEYYGTSLMQWYQQKPGQPPKLLIFAASNVKSGVPARFSGSGSGTDFSLNIHPVEEDDIAMYFCQQSGKVPHTFGGGTKLEIKRSMEIKRTDAQPAVYLFQPSPDQLHTGSASVVCLLNSFYPKDINVKWKVDGVIQDTGIQESVTEQDKDSTYSLSSTLTMSSTEYLSHELYSCEITHKSLPSTLIKSFQRSECQRVD
notes: Expressed in ExpiCHO-S cells from pTRIOZ-cIgG2-12C10E4; also called 12C chimeric antibody; mAb 12C
IC50 (read off the curve) [1]: ~0.05 µg/mL | Kd [2]: 8.6 nM | binding result [3]: binds | binding result [4]: no binding | binding result [5]: no binding | EC50 (read off the curve) [6]: ~0.2 µg/mL | EC50 [7]: 0.419 µg/mL | IC50 (read off the curve) [8]: ~0.06 µg/mL

B2: cPD-L1 A12C10E4 chimeric antibody (antibody)
heavy: QVQLKQSGPGLVQPSQSLSITCTISGFSLTSFGVHWVRQSPGKGLEWLGVIWSGGSTDYNAAFTSRLSINKDNSKSQVFFKMNSLQADDTAIYYCARGGGPDWYFDVWGTGTTVTVSSASTTAPSVFPLAPSCGSTSGSTVALACLVSGYFPEPVTVSWNSGSLTSGVHTFPSVLQSSGLYSLSSMVTVPSSRWPSETFTCNVAHPASKTKVDKPVPKRENGRVPRPPDCPKCPAPEMLGGPSVFIFPPKPKDTLLIARTPEVTCVVVDLDPEDPEVQISWFVDGKQMQTAKTQPREEQFNGTYRVVSVLPIGHQDWLKGKQFTCKVNNKALPSPIERTISKARGQAHQPSVYVLPPSREELSKNTVSLTCLIKDFFPPDIDVEWQSNGQQEPESKYRTTPPQLDEDGSYFLYSKLSVDKSRWQRGDTFICAVMHEALHNHYTQKSLSHSPGK
light: DIVLTQSPASLAVSLGQRATISCRASESVEYYGTSLMQWYQQKPGQPPKLLIFAASNVKSGVPARFSGSGSGTDFSLNIHPVEEDDIAMYFCQQSGKVPHTFGGGTKLEIKRSMADAQPAVYLFQPSPDQLHTGSASVVCLLNSFYPKDINVKWKVDGVIQDTGIQESVTEQDKDSTYSLSSTLTMSSTEYLSHELYSCEITHKSLPSTLIKSFQRSECQRVD
notes: also called mAb A12C; cPD-L1 A12C10E4 cIgG
IC50 (read off the curve) [1]: ~0.05 µg/mL | EC50 (read off the curve) [6]: ~0.2 µg/mL

B3: mPD-1-hFc protein (Fc fusion, mouse, UniProt Q02242 25-167, looked up)
chain: LEVPNGPWRSLTFYPAWLTVSEGANATFTCSLSNWSEDLMLNWNRLSPSNQTEKQAAFCNGLSQPVQDARFQIIQLPNRHDFHMNILDTRRNDSGIYLCGAISLHPKAKIEESPGAELVVTERILETSTRYPSPSPKPEGRFQ
notes: also called mouse PD-1; not shown: human Fc
binding result [9]: binds
